Results from patent US20220064329A1 (Novo Nordisk, published 2022).
Numbering of substitutions follows the chain as printed. In names and notes the source's numbering stands.

T1: recombinant human activated Factor VII (FVIIa) (human, UniProt P08709 61-212; P08709 213-466, ten glutamate residues of the Gla domain may be gamma-carboxylated)
T1 construct: chains tethered by a disulfide bond; also called Factor VIIa; rFVIIa
T1 sequence 1: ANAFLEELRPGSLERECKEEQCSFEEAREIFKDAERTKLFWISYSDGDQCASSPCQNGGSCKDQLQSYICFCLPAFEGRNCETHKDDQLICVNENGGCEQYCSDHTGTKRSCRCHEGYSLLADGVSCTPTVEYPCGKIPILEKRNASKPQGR
T1 sequence 2: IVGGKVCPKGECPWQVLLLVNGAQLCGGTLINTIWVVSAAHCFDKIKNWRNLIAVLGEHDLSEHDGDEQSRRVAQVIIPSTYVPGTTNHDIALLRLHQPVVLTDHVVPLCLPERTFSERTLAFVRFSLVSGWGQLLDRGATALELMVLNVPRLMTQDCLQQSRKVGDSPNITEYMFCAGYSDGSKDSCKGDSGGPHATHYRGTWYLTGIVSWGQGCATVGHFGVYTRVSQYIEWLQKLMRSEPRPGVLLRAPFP

B1: VH SEQ ID NO 610 / VL SEQ ID NO 318 (antibody, IgG4, V domains shown)
VH: QVQLQESGPGLVKPSQTLSLTCTVSGGSITSDSAWSWIRQPPGKGLEWIGYIQYSGSTNYNPSLKSRVTISVDTSKNQFSLKLSSVTAADTAVYYCARSVNYYGNSFAVGYWGQGTLVTVSS
VL: EIVLTQSPATLSLSPGERATLSCRASQGISDYLHWYQQKPGEAPRLLIKYTSQPATGIPARFSGSGSGTDFTLTISSLEPEDFAVYYCQNGHSFPLTFGQGTKLEIK
notes: humanized 11F2; IgG4 S228P/kappa
B2: VH SEQ ID NO 610 / VL SEQ ID NO 326 (antibody, IgG4, V domains shown)
VH: B1 VH
VL: B1 VL with A84G, Q100A, I106L
notes: as for B1
B3: VH SEQ ID NO 610 / VL SEQ ID NO 334 (antibody, IgG4, V domains shown)
VH: B1 VH
VL: B1 VL with E42Q, T51A
notes: as for B1
B4: VH SEQ ID NO 610 / VL SEQ ID NO 342 (antibody, IgG4, V domains shown)
VH: B1 VH
VL: B1 VL with E42Q, T69R, Q100A, I106L
notes: as for B1
B5: VH SEQ ID NO 610 / VL SEQ ID NO 350 (antibody, IgG4, V domains shown)
VH: B1 VH
VL: B1 VL with E42Q, Q100A, I106L
notes: as for B1
B6: VH SEQ ID NO 610 / VL SEQ ID NO 358 (antibody, IgG4, V domains shown)
VH: B1 VH
VL: B1 VL with E42Q
notes: as for B1
B7: VH SEQ ID NO 610 / VL SEQ ID NO 366 (antibody, IgG4, V domains shown)
VH: B1 VH
VL: B1 VL with I29L, H34A, T51A
notes: as for B1
B8: VH SEQ ID NO 610 / VL SEQ ID NO 382 (antibody, IgG4, V domains shown)
VH: B1 VH
VL: B1 VL with I29L, T51A
notes: as for B1
B9: VH SEQ ID NO 610 / VL SEQ ID NO 390 (antibody, IgG4, V domains shown)
VH: B1 VH
VL: B1 VL with I29V, H34A, T51A
notes: as for B1
B10: VH SEQ ID NO 610 / VL SEQ ID NO 406 (antibody, IgG4, V domains shown)
VH: B1 VH
VL: B1 VL with I29V, H34A, E42Q, T51A, Q100A
notes: as for B1
B11: VH SEQ ID NO 610 / VL SEQ ID NO 414 (antibody, IgG4, V domains shown)
VH: B1 VH
VL: B1 VL with I29V, H34A, E42Q, T51A
notes: as for B1
B12: VH SEQ ID NO 610 / VL SEQ ID NO 430 (antibody, IgG4, V domains shown)
VH: B1 VH
VL: B1 VL with I29V, H34A, E42Q, T51A, A84G
notes: as for B1
B13: VH SEQ ID NO 610 / VL SEQ ID NO 438 (antibody, IgG4, V domains shown)
VH: B1 VH
VL: B1 VL with I29V, H34A, E42Q, T51A, F83V
notes: as for B1
B14: VH SEQ ID NO 610 / VL SEQ ID NO 446 (antibody, IgG4, V domains shown)
VH: B1 VH
VL: B1 VL with I29V, H34A, E42Q
notes: as for B1
B15: VH SEQ ID NO 610 / VL SEQ ID NO 454 (antibody, IgG4, V domains shown)
VH: B1 VH
VL: B1 VL with I29V, T51A
notes: as for B1
B16: VH SEQ ID NO 610 / VL SEQ ID NO 462 (antibody, IgG4, V domains shown)
VH: B1 VH
VL: B1 VL with I29V, E42Q, T51A, Q100A
notes: as for B1
B17: VH SEQ ID NO 610 / VL SEQ ID NO 470 (antibody, IgG4, V domains shown)
VH: B1 VH
VL: B1 VL with I29V, E42Q, T51A
notes: as for B1
B18: VH SEQ ID NO 610 / VL SEQ ID NO 478 (antibody, IgG4, V domains shown)
VH: B1 VH
VL: B1 VL with I29V, E42Q, T51A, N90Q
notes: as for B1

Target: T1, recombinant human activated Factor VII …
Assay: BLI (Fortebio)

Row | Binder | Kd [nM]
1 | B1 | 10
2 | B2 | 11
3 | B3 | 13
4 | B4 | 16
5 | B5 | 11
6 | B6 | 11
7 | B7 | 330
8 | B8 | 17
9 | B9 | 380
10 | B10 | 480
11 | B11 | 780
12 | B12 | 1500
13 | B13 | 620
14 | B14 | 49
15 | B15 | 16
16 | B16 | 17
17 | B17 | 16
18 | B18 | 33
